The values below come from the DeepSol protein solubility set.

The data set can be described thus: soluble on expression in E. coli; label from the status in PepcDB or PDB records.
Take “MSLKHQFSRNELAYGQEGLDLLKEKTVAVLGVGGVGSFAAEALARTNIGHIILIDKDDVDITNVNRQIHALTTTIGQSKVTLMEERIKLINPDCKVTPLHMFYTEETYEDLFNNYDIDYFIDASDTIIYKVHLMKECLERGIKMISSMGAANKTDPTRFKIADISKTYMDPMAKIIRNKLKRQGIKKGVPVVFSDESPIVIREDVKATVGDANAINRKGQMPPSSNAFVPSTVGLICASYVVNDILKNIPVRRIKDKGNEGHHHHHH”: the “soluble on expression in E. coli” value is reported as “soluble”.
For “MNVIVEISDRLGMDYYFVSVTTTAKSLQLNSPKKYYKIWHQEIPYHQITEWHLTQQEDIQEISFAWQETFYRFVDYGTGIVPYLTQFCKVMR” the value was “not soluble”; for “MNVTRKKGPLYLQIKNIIRDRILHGVYAIHTNIPSEPQLEEEFKVSKITVRNAIKELAQEGYLEKKSGKGTKVIRNTSATKLSKGKKFTEVLVEEGYKVQKKLLKAEIVHNEEGTVPFRLFGKESFRIERLYTLNDAPYIHYTHYFSAHMASTDLSDFDLQSLYDLVEDRGIHLENFRDEFAVGLAPSFVAEALGEKEGTALLKRMRYSYDEVGEVIEYSEGYYNTEMQHYVVNYDV”, “not soluble”; for “MRVSDQVVQKLQGLIEQRHLKQGDRLPAERQLATSLGISRPSLREAIQQLNSLGILASRRGDGTYIQQLPETWSQQLIVEPISNLIEEDPEYRFDVQEARIVLEGGTAWYAALRSTEADRAKIHQCFDEIAYHQLQGDSAAAAVADANFHLAIAEASHNLVLIQMMRSLFDLLQYNVVLGRKKVYNHPVSADQLSEQHFQVMDAIDRQDAQAARDAVCGHIEFVIDHVRSLDEDEARQKRATRLHRIDQT”, “not soluble”.
The result for “MSLTVFKSPITGRTYHLVFNDEFDDGVIDTLKWDTRSRRSPFTRRGMYQEKPYYVLCHEDWTKELHGELRLEVSKYPTQNNVVMTGGILSLGRFMARYGYYETKASFRDCIGEGYWPAFWIHFDEADKYGKGTEIDVFEYIPKDKQIFQTLHWYKKQAMEEQQSEVQHAALDYDKSGQFKEHRSSTKYFVLDEAQSKEHTFAVEWTPEELIFYTDGKVTRRVNRKDDPKQVPSAYQMVYFSCSAGEWGGNVMENQVPAYVYFDYCRCYQESDQDAIYTVKGNGMKVPASRRVGKEGHHHHHH” reads “not soluble”; that for “MAIQHPDIQPAVNHSVQVAIAGAGPVGLMMANYLGQMGIDVLVVEKLDKLIDYPRAIGIDDEALRTMQSVGLVDDVLPHTTPWHAMRFLTPKGRCFADIQPMTDEFGWPRRNAFIQPQVDAVMLEGVSRFPNVRCLFSRELEAFSQQDDEVTLHLKTAEGQREIVKAQWLVACDGGASFVRRTLNVPFEGKTAPNQWIVVDIANDPLSTPHIYLCCDPVRPYVSAALPHAVRRFEFMVMPGETEEQLREPQNMRKLLSKVLPNPDNVELIRQRVYTHNARLAQRFRIDRVLLAGDAAHIMPVWQGQGYNSGMRDAFNLAWKLALVIQGKARDALLDTYQQERRDHAKAMIDLSVTAGNVLAPPKRWQGTLRDGVSWLLNYLPPVKRYFLEMRFKPMPQYYGGALMREGEAKHSPVGKMFIQPKVTLENGDVTLLDNAIGANFAVIGWGCNPLWGMSDEQIQQWRALGTRFIQVVPEVQIHTAQDNHDGVLRVGDTQGRLRSWFAQHNASLVVMRPDRFVAATAIPQTLGKTLNKLASVMTLTRPDADVSVEKVA”, “soluble”.
For “MDNHAEAHWQNGWLQSIRHTPSPNFSPRETGETVSLIVLHNISLPPFEYGTDAVEKLFANRLDPDGHPFFSLIHTLRVSSHFLIKRDGETVQFVSCDNMAYHAGVSSFGGREKCNAFSIGIELEGCDFEPFAEAQYRSLEALLDAICRHYPVTAVTGHQDIAPGRKTDPGHFFDWRRIREKGFLVDRNAV” the value was “not soluble”; for “MLGKEELRNQSIAVIGAGIIGLSIGLKLQQQGYHVTIFDPNGVGNGCSKGNAGHIATEQVFPLATPALIPQLPKMLLSSTSPVSIRWQDLPNTVGWMIRFLLKAKPSAAEASTQAITSLNTRAVQSWNLLLDSIGKSGLIKMDGSLLTFESESLFEGYQSTLDALAEQGVRYELWTQNEIRRRLPELSRKVRFGVFFPETGHTINPYALCVELSNAFEKLGGSLVHEEVDAVSKNGDVLVNTQRMSFDKIVVAAGVHSKALVRQLTGVNVPIQAERGYHLMMNDKRESLPFPISSADRKFIMTPMSEGLRLAGTVEYADVKSPPNMKRAEMLYQQGNAMFESGLNPLEQQEKWMGNRPSTIDSLPVIDQCFNGKIFLAFGHQHLGLTQAAITADLISELVADKPTSVNITPFTLQRFALEHHHHHH”, “not soluble”.
For “MSLKRVLAAEYVRMSTEHQKYSLDNQSEYIREYSLRNNITIIHTYNDAGKSGLNISGRPGLKALLDDVINKKITISAILVYDVSRFGRFQDADEAGHYSHLLRKNGVKIIYCAEPFSEEHPEMFMLGLSFSRHGAASYSRNLSEKVFLGQVNLIKRGYHQGGVAGYGLRRLLIDEHEGHHHHHH”, the “soluble on expression in E. coli” value is on record as “not soluble”.
For “MRIQIRYDDIDYLGHVNNARFLAYFEIGRLSYMKRFFNTRSAKDISMVIARAELDFERSVMFEDDIFVRTWISRVGNRSFDFSYTIEDDGGTVFCRGRTVNVFVEDGKPVSVPDFVKDLVISDVKT”, the “soluble on expression in E. coli” value was “not soluble”.
With “LRFQMNTRQFVSCWRSHKDELIATYFDASTDSQVGKAISDLGLNAGQTASLRTVIDGVLTDAFYSLLLGLDGAASIGPVQQPYEIRAEDGSVIRDIEPEAWAQFHDRSA”, the “soluble on expression in E. coli” value was “not soluble”.
The result for “EHKIILYENPNFTGKKMEIVDDDVPSFHAHGYQEKVSSVRVQSGTWVGYQYPGYRGLQYLLEKGDYKDNSDFGAPHPQVQSVRRIRDMQGNPKIIIFEQENFQGHSHELSGPCPNLKETGMEKAGSVLVQAGPWVGYEQANCKGEQFVFEKGEYPRWDSWTSSRRTDSLSSLRPIK” reads “soluble”.
The result for “MGSDKIHHHHHHMTLEHRWTGAISRLDLASGVLQQPDGDWVDEQLHHGTKVVVILRGAMRALIDGCGSEFSIAGPTVCVIRAPADASGRQMITADEPLHYVMVKAAFEPGSEADRERDPLAPLFCTDRPSLQHIEAPRALQALCTQLEVCPFVGAARDLFLSAKAIEILALACDAVETNIATETLRPSLGDVERLKKARAILLERLGAPPNLPALAAAVGMNPRKLTDGFQAAFGTTVNDFLQDARLNEAYRLLSSGATNVSEAAHRVGYTPAYFSAVFRKRFGISPRDLL” reads “not soluble”; that for “MGHHHHHHSHMYKGRTVLQKVVGHPSCTFLYGPPDPAVRATDPQQVAFPSPAELPDQKQLRYTEELLRHVAPGLHLELRGPQLWARRMGKCKVYWEVGGPPGSASPSTPACLLPRNCDTPIFDFRVFFQELVEFRARQRRGSPRYTIYLGFGQDLSAGRPKEKSLVLVKLEPWLCRVHLEGTQREGVSSLDSSSLSLCLSSANSLYDDIECFLMELEQPA”, “not soluble”.
The result for “MGSSHHHHHHSSGLVPRGSHMAHQDALPRLPVPPLQQSLDYYLKALQPIVSEEEWAHTKQLVDEFQTSGGVGERLQKGLERRAKKMENWLSEWWLKTAYLQFRQPVVIYSSPGVILPKQDFVDLQGQLRFAAKLIEGVLDFKSMIDNETLPVEFLGGQPLCMNQYYQILSSCRVPGPKQDSVVNFLKSKRPPTHITVVHNYQFFELDVYHSDGTPLTSDQIFVQLEKIWNSSLQSNKEPVGILTSNHRNTWAKAYNNLIKDKVNRESVNSIQKSIFTVCLDKQVPRVSDDVYRNHVAGQMLHGGGSKFNSGNRWFDKTLQFIVAEDGSCGMVYEHAAAEGPPIVALVDHVMEYTKKPELVRSPMVPLPMPKKLRFNITPEIKNDIEKAKQNLSIMIQDLDIMMLTFHHFGKDFPKSEKLSPDAFIQVALQLAYYRIYGQACATYESASLRMFHLGRTDTIRSASIDSLAFVKGMGDSTVPEQQKVELLRKAVQAHRAYTDRAIRGEAFDRHLLGLKLQAIEDLVSMPDIFMDTSYAIAMHFNLSTSQVPAKTDCVMAFGPVVPDGYGICYNPMEAHINFSVSAYNSCAETNAARMAHYLEKALLDMRTLLQNHPRAKL” reads “soluble”.
Consider “MGSDKIHHHHHHMYIRPFDPWKSKLCTCPFKYTLNPYTGCDHACVYCYITSYIPNAFKVRPKKNLLIQVERELRKFDKRYIIAMSYSSDPYPTIEKELGITRKVLELFRRYDVRCLILTKSDIFERDIDILKELRCAVGVTVTTIDERKAKLLEPNAPLPKDRIRALKKAKKEGIPVYARVDPIIPFYTWEDFRKTVDALSFVSHITVSTLKLRPDIKARMRAKFPELMKKLEPLYTERYEGYAYLRKDMRFRILNEARKIIEGKGITFGSCREGYYSYPTCDGSHLVP”, for which the “soluble on expression in E. coli” value was “not soluble”.
For “MVVPGKNSTISPDYFTASQTSPLDMMKFPSPGSSKRYDNGGGIGLGIVAALEKSSIGINPVCHTGAGSKGFDLARYSKRFQFAAGIDLSDSEEYTCVTTRDGLTKVYYKEEEFEFGHNLLNGDQRWRKPIEIAEESPAKERRVLRDCPDFLTSCCLCKKKLQGKDIYMYKGDEGFCSKECRSLKIMEDSLKEQHKLTSVEVLTGEEIASPGIFLI” the value was “soluble”; for “MGHHHHHHSHMGDSRRDVLHEPAIALLSSPQTQSRLQIDAFIARRCWGSQWDITGYIHQQDFPTAVFIGFSNEFNICIPHPFTEWLQCVRKYSQSWGVRKGQRHIRYGMCSERTHHLSRTYSSLLEREEKLAFYGVLTMCQIWSET”, “not soluble”; for “MERMMLIAFDLEGTLTDMVSWELLHKKFETCGLAKKNAELFFSGRISYEEWAKLDASLWKGRRREEVEEVFKEVSLKDYAEELFRWLKEKGFKTAIITGGLMCLAKKVAEKLNPDYVYANELVFNEKGEITGDVIVRVTFDNKGEILERLKRELNPTLTVAVGDWKNDLPMFEVADISISLGEDHADYLAKDLREVKKILKEVLLETEKL”, “soluble”.
For “MKKWLLAAGLGLAMVTSAQAADKIAIVNMGNLFQQVAQKTGVSNTLENEFKGRAAELQKMETDLQSKMQRLQSMKAGSDRTKLEKDVMSQRQTFAQKAQAFEKDRARRSNEERNKLVTRIQTAVKKVANDQSIDLVVDANTVAYNSSDVKDITADVLKQVK” the value was “not soluble”.
For “MAHHHHHHMLKCARYLFGPPNTKRKCAPLFSARNFSILERYIRAKPLSHELKIEEAKNEGIKGEGDRNGEERKASEKSASTYYPPNITRGVIPKSAYMNTWKIPEQPANPKFLKVALIGAPNAGKSSLLNSILNKTISAVSPKINTTRQDIKGIYTKDNVQLIFIDSPGIVPSHKKKKFCKELVSYAWKGYEEADLVLFIADTVKRPTHDVLNIIRMLAPKKVEAYSSGSEDEGETQHYMFNHPSEDHDQEEHFEWNGKPQSDLNSSSTNEELYEKSQKNVQKFVEYFSTAMEKEAKYSDKSVKENLLKNRKKIIESYSNDVDGKDSPNGEGEQQKLVPPVILVLNKVDLCTHNKWANARAKEFMSNGNFDNIFFISAKYNKGVEELLDYIAKFKAKNQFWVYPKDSNTTLTKVQVVEQLINTYLYCWFNKDVPYRVKHHMLSWCVNLNNSLIIEYQIVVKSPKVAKMICGVHNKLIINMRRNVSYKLTQLWGQNVYVHIHVKSVSA” the value was “not soluble”; for “MFLVDSHCHLDGLDYQSLHKDVDDVLAKAAARDVKFCLAVATTLPGYRHMRKLVGKRDNVVFSCGVHPLNQDEAYDVEELRLLAAEDDVVAMGETGLDYFYTPETKIRQQASFIHHIQIGRELHKPVIVHTRDARADTLAILREEKVTDCGGVLHCFTEDRETAGKLLDLGFYISFSGIVTFRNAEQLRDAARYVPLDRLLVETDSPYLAPVPHRGKENQPAMVRDVAEYMAVLKGVAVEELAQITTDNFARLFHIDASRLSSIR”, “not soluble”.
